Key:
[1] = tested on: Colo205 tumor sections; experiment: Film in situ zymography (FIZ) on frozen tumor sections; assay type: cell-based, human; settings: 500 nM; 37° C. overnight
Procedure: (§1) PBS-control treated tumors were screened with M0237-D02 for gelatinase expression using the FIZ approach. The tumors tested were Colo205 and MCF-7. Briefly, frozen slides of tumpor sections were dried at room temperature and 200 μl of in situ Zymo buffer (TCNB)+20 μg/ml of gelatin quenched substrate from molecular probes was added. The slides were incubate at 37° C. overnight in the presence of M0237-D02 at 500 nM or GM6001 used as a positive control at 100 μM. The substrate was washed in MilliQ (3 times) and the mounted slides were treated with anti-Fade+Dapi mounting medium.

[2] = tested on: MCF-7 tumor sections; experiment: as above; assay type: cell-based, human; settings: 500 nM; 37° C. overnight
Procedure: as §1

[3] = biological target: MMP-9 (Homo sapiens, UniProt P14780); experiment: Enzyme inhibition assay (single point inhibition, IC50/Ki,app), substrate M-2350; assay type: biochemical; parameters: Human MMP-9 catalytic domain (BIOMOL, SE-244); purchased BIOMOL SE-244
Procedure: (§2) 343 unique sFabs from the anti-MMP-9/-2 M237-D02 affinity maturation campaign were discovered by phage display, produced in small scale (6 mL cultures in deep 24-well plates) and screened to select inhibitors with sub-nanomolar potency against the human enzymes and at least single-digit nanomolar potency toward the mouse orthologues. […] Isolates which appeared potent against both human and mouse MMP-2 were then subjected to IC50 analysis against hMMP-9. Sub-nanomolar inhibitors of hMMP-9 were further tested by IC50 analysis against mMMP-9 and h/m MMP-2, if sufficient small-scale sFab material was available. Thirteen potential h/m MMP-9/-2 sFab inhibitors were then produced in medium scale (250 mL cultures in flasks) and retested for h/m MMP-9 and h/m MMP-2 inhibition. Five potential lead candidates were reformatted as IgGs and retested in enzyme inhibition assays.
Human MMP-9 (Biomol #SE-244), mouse MMP-9 (R&D Systems #909-MM-010), human MMP-2 (Biomol #SE-237) and mouse MMP-2 (R&D Systems #924-MP-010) were tested at final concentrations of 1 nM, 0.25-0.4 nM, 2.5 nM and 0.2 nM, respectively. Target enzymes were incubated with inhibitor for two hours at 30° C. in reaction buffer (50 mM Tris-HCl pH 7.5, 150 mM NaCl, 5 mM CaCl2, 0.05% Brij-35) in a total volume of 90 μL using a white 96 well plate (Costar). Reactions contained 5 μL of small-scale sFab stock solution (average concentration of 500 nM) for single point inhibition analysis or a concentration series of sFab/IgG for IC50 Ki,app determinations. […] Reactions were initiated by the addition of 10 μL of a 10× concentrated stock of substrate, Mca-Lys-Pro-Leu-Gly-Leu-Dap(Dnp)-Ala-Arg-NH2, (Bachem M-2350), at final concentration of 10 μM and monitored at 30° C. in a Molecular Devices' Gemini fluorescence plate reader. […] Kinetic data were acquired by the increase in fluorescence, and initial rates for each condition were plotted against the total inhibitor concentration. […]

[4] = biological target: h-MMP-9/h-TIMP-1 complex (Homo sapiens, UniProt P14780); experiment: Biacore 3000 binding to antibody-coated CM5 chip; settings: 25° C.
Procedure: The non competitive inhibition model implies that the ternary complex enzyme-substrate-inhibitor can form. It is however possible that this complex cannot form with bigger substrates, in which case the antibody would behave as a competitive inhibitor. In order to address this issue, the ability of M0237-D02 antibody to bind to the h-MMP-9 when the enzyme is complexed to its natural inhibitor h-TIMP-1 was determined. The reasoning is that if the antibody cannot bind to the h-MMP-9/h-TIMP-1 complex, it would probably behave as a competitive inhibitor of this enzyme in the presence of bigger substrates.
Experiments were performed at 25° C. with the help of a Biacore 3000 instrument. The MMP-9 binding protein (M0166F10) and the M0237-D02 antibody were coated to a CM5 chip either via standard amine coupling or using an anti-Fc antibody surface. Then either the active, human MMP-9 catalytic domain (BIOMOL, SE-244), the human pro-MMP-9 (R&D, 911-MP), the human TIMP-1 (R&D, 970-TM) or a h-MMP-9/h-TIMP-1 complex were flowed over the antibody surfaces, and binding was recorded.

[5] = biological target: T1, Mouse MMP-9 (Mus musculus, UniProt P41245); experiment: Enzyme inhibition assay (single point inhibition, IC50/Ki,app), substrate M-2350; assay type: biochemical
T1 construct: purchased R&D Systems 909-MM (909-MM-010)
Procedure: as §2
(§3) Human MMP-9 (Biomol #SE-244), mouse MMP-9 (R&D Systems #909-MM-010), human MMP-2 (Biomol #SE-237) and mouse MMP-2 (R&D Systems #924-MP-010) were tested at final concentrations of 1 nM, 0.25-0.4 nM, 2.5 nM and 0.2 nM, respectively. Target enzymes were incubated with inhibitor for two hours at 30° C. in reaction buffer (50 mM Tris-HCl pH 7.5, 150 mM NaCl, 5 mM CaCl2, 0.05% Brij-35) in a total volume of 90 μL using a white 96 well plate (Costar). Reactions contained 5 μL of small-scale sFab stock solution (average concentration of 500 nM) for single point inhibition analysis or a concentration series of sFab/IgG for IC50 Ki,app determinations. Commercially available anti-MMP-9 antibodies (Millipore mAb 13415 and R&D Systems polyclonal IgG #AB911) were tested by IC50 analyses using 100 nM and 500 nM as the highest inhibitor concentrations, respectively. An anti-MMP-2 antibody (R&D Systems polyclonal IgG #AF902) was similarly tested with 200 nM as the highest inhibitor concentration. Reactions were initiated by the addition of 10 μL of a 10× concentrated stock of substrate, Mca-Lys-Pro-Leu-Gly-Leu-Dap(Dnp)-Ala-Arg-NH2, (Bachem M-2350), at final concentration of 10 μM and monitored at 30° C. in a Molecular Devices' Gemini fluorescence plate reader. The excitation and emission wavelengths were set at 328 nm and 393 nm, respectively. Kinetic data were acquired by the increase in fluorescence, and initial rates for each condition were plotted against the total inhibitor concentration. Reactions were performed in duplicates and all data replicates were plotted in a single graph and fit to the following equation^1:
(§4) Where A=initial rate observed at each inhibitor concentration; Ao=initial rate observed in the absence of inhibitor; Ainh=initial rate observed for the enzyme inhibitor complex; Inh=concentration of inhibitor; E=total enzyme concentration (treated as a floated parameter); and Ki,app=apparent equilibrium inhibition constant.

[6] = biological target: T2, human MMP-2 (Homo sapiens, UniProt P08253); experiment: as above; assay type: biochemical
T2 construct: purchased Biomol SE-237
Procedure: as §2, §3, §4

[7] = biological target: T3, mouse MMP-2 (Mus musculus, UniProt P33434); experiment: as above; assay type: biochemical
T3 construct: purchased R&D Systems 924-MP-010
Procedure: as §2, §3, §4

Chain of h-MMP-9/h-TIMP-1 complex (P14780 107-444 limits assumed): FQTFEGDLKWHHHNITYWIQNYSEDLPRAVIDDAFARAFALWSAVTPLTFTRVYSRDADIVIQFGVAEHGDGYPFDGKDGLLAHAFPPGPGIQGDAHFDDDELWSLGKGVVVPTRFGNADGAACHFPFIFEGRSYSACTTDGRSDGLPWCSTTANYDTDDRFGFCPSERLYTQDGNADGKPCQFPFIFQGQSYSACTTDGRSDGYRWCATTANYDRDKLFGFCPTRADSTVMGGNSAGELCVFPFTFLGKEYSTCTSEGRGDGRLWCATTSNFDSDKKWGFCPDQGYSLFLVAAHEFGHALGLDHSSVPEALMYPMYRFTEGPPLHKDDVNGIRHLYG
Chain of h-MMP-9/h-TIMP-1 complex (P01033 24-207 partner): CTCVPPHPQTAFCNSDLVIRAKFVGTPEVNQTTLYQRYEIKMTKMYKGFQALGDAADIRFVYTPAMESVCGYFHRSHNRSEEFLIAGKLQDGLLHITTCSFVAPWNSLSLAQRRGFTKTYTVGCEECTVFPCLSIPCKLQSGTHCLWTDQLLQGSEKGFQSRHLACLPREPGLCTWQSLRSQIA
T3 sequence (P33434 110-662): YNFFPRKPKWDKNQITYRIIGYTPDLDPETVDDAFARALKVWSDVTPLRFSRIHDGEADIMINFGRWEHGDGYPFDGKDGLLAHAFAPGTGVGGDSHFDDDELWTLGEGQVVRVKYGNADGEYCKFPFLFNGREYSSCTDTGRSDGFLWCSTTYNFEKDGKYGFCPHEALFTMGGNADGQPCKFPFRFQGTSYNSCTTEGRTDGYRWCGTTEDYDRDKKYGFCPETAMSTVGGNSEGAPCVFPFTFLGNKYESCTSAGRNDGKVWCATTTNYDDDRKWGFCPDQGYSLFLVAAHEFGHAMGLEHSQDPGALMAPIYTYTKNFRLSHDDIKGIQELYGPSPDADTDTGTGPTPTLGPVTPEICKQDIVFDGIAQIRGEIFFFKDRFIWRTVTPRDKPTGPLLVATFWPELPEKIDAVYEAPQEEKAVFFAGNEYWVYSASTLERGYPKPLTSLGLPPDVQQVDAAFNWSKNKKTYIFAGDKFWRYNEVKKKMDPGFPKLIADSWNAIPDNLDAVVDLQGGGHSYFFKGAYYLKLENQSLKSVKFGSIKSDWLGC
T1 sequence (P41245 108-730): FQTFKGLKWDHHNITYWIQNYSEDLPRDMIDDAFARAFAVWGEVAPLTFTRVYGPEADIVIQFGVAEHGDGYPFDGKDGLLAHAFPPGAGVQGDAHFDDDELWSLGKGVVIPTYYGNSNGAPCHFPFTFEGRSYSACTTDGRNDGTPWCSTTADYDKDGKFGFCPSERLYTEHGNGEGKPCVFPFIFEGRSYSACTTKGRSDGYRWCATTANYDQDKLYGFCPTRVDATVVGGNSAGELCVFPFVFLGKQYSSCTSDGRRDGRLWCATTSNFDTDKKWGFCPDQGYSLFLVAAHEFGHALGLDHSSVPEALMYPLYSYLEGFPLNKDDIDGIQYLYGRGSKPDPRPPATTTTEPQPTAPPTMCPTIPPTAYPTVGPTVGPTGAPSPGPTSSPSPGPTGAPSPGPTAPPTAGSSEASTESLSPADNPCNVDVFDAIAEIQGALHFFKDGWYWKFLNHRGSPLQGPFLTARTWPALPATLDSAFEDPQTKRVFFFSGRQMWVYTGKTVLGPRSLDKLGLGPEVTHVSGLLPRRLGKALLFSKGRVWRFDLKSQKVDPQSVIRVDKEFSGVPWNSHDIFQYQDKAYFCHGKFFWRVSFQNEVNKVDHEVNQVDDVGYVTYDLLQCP
Chain of MMP-9 (P14780 107-444 limits assumed): as the sequence (P14780 107-444 limits assumed) above
T2 sequence (P08253 110-446 limits assumed): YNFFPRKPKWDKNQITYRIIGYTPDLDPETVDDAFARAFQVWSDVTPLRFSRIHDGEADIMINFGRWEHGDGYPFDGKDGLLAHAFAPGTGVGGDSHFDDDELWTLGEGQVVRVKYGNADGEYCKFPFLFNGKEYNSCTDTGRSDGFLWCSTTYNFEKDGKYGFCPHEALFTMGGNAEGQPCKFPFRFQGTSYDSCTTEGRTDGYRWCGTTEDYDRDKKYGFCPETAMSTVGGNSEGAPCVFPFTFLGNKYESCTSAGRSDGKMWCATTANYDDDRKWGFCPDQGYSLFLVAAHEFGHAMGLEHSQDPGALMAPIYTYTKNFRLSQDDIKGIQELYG

affinity for hMMP-9 (in words) [3]: high affinity
binding of huTIMP-1/cat-huMMP-9 ([4]; Direct capture): No
binding of huTIMP-1/cat-huMMP-9 ([4]; Fc capture): no binding was observed
binding of huTIMP-1/cat-huMMP-9 ([4]; Fc capture, listed as 539A-M0237D02): No
affinity for mMMP-9 (in words) [5]: high affinity
affinity for hMMP-2 (in words) [6]: high affinity
affinity for mMMP-2 (in words) [7]: low affinity
Ki ([7]; IgG, Table 12): 76 nM
B1: M0237-D02: MMP-9/-2 dual reactive antibody inhibitor (parental); sFab and hIgG1 (antibody, V domains shown)
VH: EVQLLESGGGLVQPGGSLRLSCAASGFTFSQYPMWWVRQAPGKGLEWVSYIVPSGGRTYYADSVKGRFTISRDNSKNTLYLQMNSLRAEDTAVYYCAKDRAYGDYVGWNGFDYWGQGTLVTVSS
VL: DIQMTQSPATLSLSPGERATLSCRASQSISSFLAWYQQKPGQAPRLLIYDASYRATGIPARFSGSGSGTDFTLTISSLEPEDYAVYYCQQRGNWPITFGQGTRLEIK
inhibition of gelatinolytic activity [1]: complete inhibition
inhibition of gelatinolytic activity [2]: complete inhibition

From patent publication US20110135573A1, “METALLOPROTEINASE 9 AND METALLOPROTEINASE 2 BINDING PROTEINS” (DYAX CORP., priority 2009, published 2011)
